Ends that are not written are not given here.
B1: NPY27-36 (peptide)
peptide: YINLITRQRY-NH2
B2: NPY21-35 (peptide)
peptide: YSALRHYINLITRQR
B3: NPY1-20 (peptide)
peptide: YPSKPDNPGEDAPAEDMARY
B4: NPY3-35 reversed sequence (peptide)
peptide: RQRTILNIYHRLASYYRAMDEAPADEGPNDPKS
B5: NPY21-36 (peptide)
peptide: YSALRHYINLITRQRY-NH2
B6: NPY22-35 (peptide)
peptide: SALRHYINLITRQR
B7: Neuropeptide Y (NPY; NPY1-36; full-length NPY) (peptide)
peptide: not shown
modifications: Tyr36 amidated
B8: NPY21-34 (peptide)
peptide: YSALRHYINLITRQ
B9: NPY31-36 (peptide)
peptide: ITRQRY-NH2
modifications: also: Tyr36 (pos 6): amidated per mods, acetylation
B10: NPY24-35 (peptide)
peptide: LRHYINLITRQR
B11: NPY23-36 (peptide)
peptide: ALRHYINLITRQRY-NH2
B12: NPY23-36 ala36 (peptide)
peptide: ALRHYINLITRQRA
modifications: ends and bridges not checked
B13: NPY23-35 (peptide)
peptide: ALRHYINLITRQR
B14: NPY21-35 ala21 (peptide)
peptide: ASALRHYINLITRQR
B15: NPY13-35 (peptide)
peptide: PAEDMARYYSALRHYINLITRQR
B16: NPY25-36 (peptide)
peptide: RHYINLITRQRY-NH2

Molecular target: NCAM on rat hippocampal neurons (rat, UniProt P13596 20-858)
Experiment: cell-based or functional assay

Sequence of NCAM on rat hippocampal neurons (P13596 20-858): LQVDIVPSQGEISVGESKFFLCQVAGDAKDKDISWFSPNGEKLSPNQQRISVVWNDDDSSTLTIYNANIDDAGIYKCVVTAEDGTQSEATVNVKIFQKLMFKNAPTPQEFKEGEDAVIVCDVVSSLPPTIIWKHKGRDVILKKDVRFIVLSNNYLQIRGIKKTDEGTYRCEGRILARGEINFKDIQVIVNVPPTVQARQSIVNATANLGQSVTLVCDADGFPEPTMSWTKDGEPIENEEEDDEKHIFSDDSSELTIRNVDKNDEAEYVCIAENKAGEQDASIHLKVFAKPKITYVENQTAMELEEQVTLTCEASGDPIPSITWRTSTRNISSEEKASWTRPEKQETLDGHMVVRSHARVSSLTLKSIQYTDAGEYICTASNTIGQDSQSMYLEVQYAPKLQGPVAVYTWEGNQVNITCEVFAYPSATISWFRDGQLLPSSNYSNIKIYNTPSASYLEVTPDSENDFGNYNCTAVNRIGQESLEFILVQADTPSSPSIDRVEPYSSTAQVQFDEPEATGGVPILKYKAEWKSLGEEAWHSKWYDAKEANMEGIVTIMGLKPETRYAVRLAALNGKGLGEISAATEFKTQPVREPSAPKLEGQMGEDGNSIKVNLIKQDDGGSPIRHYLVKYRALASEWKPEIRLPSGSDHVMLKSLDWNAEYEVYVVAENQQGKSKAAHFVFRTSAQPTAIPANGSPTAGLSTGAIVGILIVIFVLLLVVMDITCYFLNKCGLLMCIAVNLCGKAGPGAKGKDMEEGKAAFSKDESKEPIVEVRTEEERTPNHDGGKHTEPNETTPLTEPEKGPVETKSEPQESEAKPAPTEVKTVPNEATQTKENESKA

| Binder | Neuritogenic effect, 1 µM NPY fragment (% of control) | Neuritogenic effect, 3 µM NPY fragment (% of control) |
| --- | --- | --- |
| B1 | 107 % of control | 99.1 % of control |
| B2 | 154 % of control | 233 % of control |
| B3 | 97.8 % of control | 99.1 % of control |
| B4 | 110 % of control | 285 % of control |
| B5 | 108 % of control | 186 % of control |
| B6 | 104 % of control | 91.4 % of control |
| B7 | 166 % of control | 180 % of control |
| B8 | 87.7 % of control | 97.5 % of control |
| B9 | 100 % of control | 91.8 % of control |
| B10 | 96.9 % of control | 103 % of control |
| B11 | 107 % of control | 156 % of control |
| B12 | 89.1 % of control | 91.7 % of control |
| B13 | 96.2 % of control | 104 % of control |
| B14 | 95.4 % of control | 94.1 % of control |
| B15 | 174 % of control | 305 % of control |
| B16 | 95.9 % of control | 96.1 % of control |
